The source of these data is US20220089784A1 (University of California, published 2022).

Numbering of substitutions follows the chain as printed.

As a reminder, the Kd is the free concentration of one partner at which half of the binding sites on the other are occupied at equilibrium, for simple one-to-one binding.

First the molecules themselves.
T1: BoNT/B light chain (recombinant) (Clostridium botulinum, UniProt P10844 1-441)
T1 sequence: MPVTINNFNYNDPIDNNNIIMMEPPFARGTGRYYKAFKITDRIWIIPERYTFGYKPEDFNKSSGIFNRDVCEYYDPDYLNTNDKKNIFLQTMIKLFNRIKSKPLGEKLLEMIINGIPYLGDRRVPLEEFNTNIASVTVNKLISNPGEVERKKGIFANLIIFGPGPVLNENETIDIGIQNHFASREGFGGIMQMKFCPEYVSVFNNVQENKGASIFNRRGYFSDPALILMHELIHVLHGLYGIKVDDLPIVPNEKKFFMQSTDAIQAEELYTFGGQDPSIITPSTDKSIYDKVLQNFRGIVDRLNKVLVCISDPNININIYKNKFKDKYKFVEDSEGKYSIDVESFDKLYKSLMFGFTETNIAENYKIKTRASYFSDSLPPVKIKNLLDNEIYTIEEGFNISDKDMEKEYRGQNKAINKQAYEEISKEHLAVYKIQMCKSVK

T2: BoNT/B1 (Clostridium botulinum, UniProt P10844 2-1291)
T2 sequence: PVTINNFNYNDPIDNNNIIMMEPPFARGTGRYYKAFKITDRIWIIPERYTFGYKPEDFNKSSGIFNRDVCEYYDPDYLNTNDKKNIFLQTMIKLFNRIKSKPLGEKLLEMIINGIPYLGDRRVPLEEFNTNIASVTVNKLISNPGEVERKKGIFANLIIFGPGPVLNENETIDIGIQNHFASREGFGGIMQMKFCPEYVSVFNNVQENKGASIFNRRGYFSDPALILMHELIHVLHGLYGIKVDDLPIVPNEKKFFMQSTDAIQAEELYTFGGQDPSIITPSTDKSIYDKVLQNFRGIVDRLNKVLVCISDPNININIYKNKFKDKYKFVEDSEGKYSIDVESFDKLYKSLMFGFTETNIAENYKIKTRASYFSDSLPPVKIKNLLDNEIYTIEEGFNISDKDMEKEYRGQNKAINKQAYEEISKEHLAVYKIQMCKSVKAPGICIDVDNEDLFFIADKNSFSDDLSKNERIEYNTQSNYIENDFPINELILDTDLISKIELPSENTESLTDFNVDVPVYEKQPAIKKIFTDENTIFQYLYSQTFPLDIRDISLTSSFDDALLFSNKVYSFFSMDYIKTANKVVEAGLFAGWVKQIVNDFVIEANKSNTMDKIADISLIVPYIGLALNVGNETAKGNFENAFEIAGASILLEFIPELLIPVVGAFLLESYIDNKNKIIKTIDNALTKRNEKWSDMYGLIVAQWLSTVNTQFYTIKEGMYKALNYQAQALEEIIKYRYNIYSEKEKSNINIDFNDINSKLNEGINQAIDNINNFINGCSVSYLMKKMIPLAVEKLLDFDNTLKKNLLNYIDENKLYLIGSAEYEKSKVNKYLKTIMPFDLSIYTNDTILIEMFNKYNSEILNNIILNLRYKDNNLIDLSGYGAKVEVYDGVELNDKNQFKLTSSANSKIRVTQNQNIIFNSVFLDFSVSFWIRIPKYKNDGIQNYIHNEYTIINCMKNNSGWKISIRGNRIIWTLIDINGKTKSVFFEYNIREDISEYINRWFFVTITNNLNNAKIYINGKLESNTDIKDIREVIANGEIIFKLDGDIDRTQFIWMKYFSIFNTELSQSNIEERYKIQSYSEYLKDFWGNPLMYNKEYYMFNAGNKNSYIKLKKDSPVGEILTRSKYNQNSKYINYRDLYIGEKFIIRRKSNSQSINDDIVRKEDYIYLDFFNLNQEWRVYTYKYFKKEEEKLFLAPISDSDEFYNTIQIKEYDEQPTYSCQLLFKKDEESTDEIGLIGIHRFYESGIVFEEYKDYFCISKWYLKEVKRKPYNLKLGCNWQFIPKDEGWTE

T3: BoNT/F1 (proteolytic BoNT/F) (Clostridium botulinum, UniProt A7GBG3 1-1278)
T3 sequence: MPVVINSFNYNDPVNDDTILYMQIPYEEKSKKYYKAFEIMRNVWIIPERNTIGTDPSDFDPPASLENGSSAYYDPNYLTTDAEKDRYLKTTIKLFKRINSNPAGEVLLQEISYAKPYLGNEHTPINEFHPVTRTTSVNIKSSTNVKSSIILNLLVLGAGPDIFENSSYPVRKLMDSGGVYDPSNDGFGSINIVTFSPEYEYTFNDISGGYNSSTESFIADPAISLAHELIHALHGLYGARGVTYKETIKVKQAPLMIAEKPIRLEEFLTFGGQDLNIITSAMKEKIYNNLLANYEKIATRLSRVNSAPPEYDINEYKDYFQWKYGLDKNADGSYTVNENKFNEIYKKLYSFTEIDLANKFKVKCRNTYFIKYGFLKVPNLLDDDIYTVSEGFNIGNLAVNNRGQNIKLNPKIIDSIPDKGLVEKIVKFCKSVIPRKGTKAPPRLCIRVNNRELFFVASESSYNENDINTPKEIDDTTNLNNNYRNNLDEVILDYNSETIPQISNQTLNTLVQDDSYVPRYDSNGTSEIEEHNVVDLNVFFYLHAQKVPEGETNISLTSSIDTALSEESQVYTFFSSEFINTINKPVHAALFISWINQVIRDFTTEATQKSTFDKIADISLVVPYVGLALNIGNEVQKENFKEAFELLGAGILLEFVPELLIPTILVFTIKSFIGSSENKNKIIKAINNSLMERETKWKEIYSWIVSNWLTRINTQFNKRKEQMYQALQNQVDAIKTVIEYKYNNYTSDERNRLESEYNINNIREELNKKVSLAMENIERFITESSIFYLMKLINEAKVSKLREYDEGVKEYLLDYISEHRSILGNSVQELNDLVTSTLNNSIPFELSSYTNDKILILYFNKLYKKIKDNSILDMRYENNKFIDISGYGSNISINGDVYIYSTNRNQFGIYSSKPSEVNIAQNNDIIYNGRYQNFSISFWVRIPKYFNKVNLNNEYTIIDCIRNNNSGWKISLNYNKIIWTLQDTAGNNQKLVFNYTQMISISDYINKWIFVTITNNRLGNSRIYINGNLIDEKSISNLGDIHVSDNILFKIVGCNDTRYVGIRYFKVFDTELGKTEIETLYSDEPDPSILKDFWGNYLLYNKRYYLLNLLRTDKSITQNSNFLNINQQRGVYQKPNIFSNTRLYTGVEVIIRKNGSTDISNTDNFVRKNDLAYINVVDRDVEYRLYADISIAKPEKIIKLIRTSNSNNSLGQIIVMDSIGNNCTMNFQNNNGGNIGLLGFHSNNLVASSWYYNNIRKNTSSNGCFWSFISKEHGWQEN

T4: BoNT/F 202F (Clostridium botulinum, UniProt P30996 1-1274)
T4 sequence: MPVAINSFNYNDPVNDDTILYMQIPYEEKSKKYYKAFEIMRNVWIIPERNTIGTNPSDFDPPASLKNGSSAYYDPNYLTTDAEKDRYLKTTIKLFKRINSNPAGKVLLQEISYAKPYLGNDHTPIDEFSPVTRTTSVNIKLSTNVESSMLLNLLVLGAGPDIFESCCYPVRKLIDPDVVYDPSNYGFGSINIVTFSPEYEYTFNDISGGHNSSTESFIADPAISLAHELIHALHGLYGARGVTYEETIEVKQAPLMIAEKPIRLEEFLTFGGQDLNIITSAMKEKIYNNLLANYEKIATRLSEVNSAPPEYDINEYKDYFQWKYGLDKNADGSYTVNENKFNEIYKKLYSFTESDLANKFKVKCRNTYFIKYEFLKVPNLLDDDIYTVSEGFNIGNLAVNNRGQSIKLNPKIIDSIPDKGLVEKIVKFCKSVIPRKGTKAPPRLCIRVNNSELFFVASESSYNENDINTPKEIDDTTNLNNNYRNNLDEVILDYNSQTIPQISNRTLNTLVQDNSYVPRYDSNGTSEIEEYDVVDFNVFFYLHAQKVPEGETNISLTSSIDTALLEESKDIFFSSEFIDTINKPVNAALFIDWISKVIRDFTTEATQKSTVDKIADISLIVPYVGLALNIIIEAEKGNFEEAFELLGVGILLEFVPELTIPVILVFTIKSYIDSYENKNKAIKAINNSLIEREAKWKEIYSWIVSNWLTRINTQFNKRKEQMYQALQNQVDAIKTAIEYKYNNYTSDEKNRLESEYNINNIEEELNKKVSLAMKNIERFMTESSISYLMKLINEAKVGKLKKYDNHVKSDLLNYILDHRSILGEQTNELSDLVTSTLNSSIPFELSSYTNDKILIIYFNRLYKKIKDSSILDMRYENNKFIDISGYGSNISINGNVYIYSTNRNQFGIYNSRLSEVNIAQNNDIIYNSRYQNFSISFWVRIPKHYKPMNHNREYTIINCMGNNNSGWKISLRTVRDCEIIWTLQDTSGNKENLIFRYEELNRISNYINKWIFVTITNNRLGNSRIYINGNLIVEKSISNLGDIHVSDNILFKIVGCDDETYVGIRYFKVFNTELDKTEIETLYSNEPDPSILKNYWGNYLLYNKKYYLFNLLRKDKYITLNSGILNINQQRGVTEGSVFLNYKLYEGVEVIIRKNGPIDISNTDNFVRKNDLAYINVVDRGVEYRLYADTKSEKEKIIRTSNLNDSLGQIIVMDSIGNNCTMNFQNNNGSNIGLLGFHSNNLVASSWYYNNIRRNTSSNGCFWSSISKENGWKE

B1: 19A9 scFv (scFv)
scFv: EVQLQQPGSELARPGASVKLSCKASGYTFTSYPITWVKQTTGQGLEWIGEIYPRSGNTYYNEKFKGKATLTADKSSSTAYMELRSLTSEDSAVYFCARDYYDYAGGGRGYWGQGTTLTVSSVDLKSGGSTSGSGKPGSGEGSSGSARDIVLTQSPAIMSASPGGKITITCSASSSVSYMHWFQQKPGTSPKLWIYSTSNLASGVPARFSGSGSGTSYSLTISRMEAEDAATYYCQQRSSYPYTFGGGTKLEIK
notes: mouse
B2: 19D2 scFv (scFv)
scFv: EVQLQQSGGELARPGSSVKLSCKASGYSFTGYSLTWVKQTPGQGLEWIGEIYPRSGNTYYNENFQGKATLTADESSSTAYMELRSLTSEDSAVYFCARDFYDYDGGGRGYWGQGTTLTVSSVDLKSGGSTSGSGKPGSGEGSSGSARDIVMTQTPAIMSASPGEKVTITCSASSSVSYMHWYQQKPGTSPKLWIYSTSNLASGVPARFSGSGSGTSYSLTISRMEAEDAATYYCQQRSSYPYTFGGGTKLEIK
notes: mouse
B3: 39H6 scFv (scFv, V domains shown)
VH: EVQLVPSGGNLVQPGGSLRLSCAATGPIGSHWMTWVRQAPGQGLEWVANINLDGTEKFYVDSVKGRFTVSRDNRKSSVFLQMNNLRVDDTAVYYCARLQWGGYNGWLSPWGQGTLVTVSS
VL: DIVMTQSPPSLSASVGDRVSLTCRASEYIGTSLNWYQQKPGKAPKLLIYAASALHSGVPSRFSGSGSGTDFTLTISGLQPEDFATYYCQQANDLPLTFGGGTKLEIK
B4: 39A1 scFv (scFv, V domains shown)
VH: B3 VH with L4Q, P6Q
VL: B3 VL
B5: 43D3 scFv (scFv, V domains shown)
VH: B3 VH with L4Q, P6Q
VL: B3 VL with I106N
B6: 41F7 scFv (scFv, V domains shown)
VH: B3 VH
VL: B3 VL with V3L
B7: 41E2 scFv (scFv, V domains shown)
VH: B3 VH
VL: B3 VL with T5I
B8: 41C2 scFv (scFv, V domains shown)
VH: B3 VH with L4Q, P6Q
VL: B3 VL with A91T
B9: 39D5.1 scFv (scFv, V domains shown)
VH: B3 VH with P6Q, N49S
VL: B3 VL

The target of one test is T1, BoNT/B light chain (recombinant). Nature of the test: yeast scFv FACS.
As for B1, the Kd is 3.16 nM.

Consider B2, for which the dissociation constant (Kd) was 5.69 nM.

The target of a further test is T2, BoNT/B1. Nature of the test: yeast scFv FACS.
Turning to B1, binding was characterised by a dissociation constant (Kd) of 1.98 nM.

With B2, the equilibrium dissociation constant (Kd) came out at 2.95 nM.

The target in a further test is T3, BoNT/F1 (proteolytic BoNT/F). Nature of the test: yeast scFv FACS.
Take B3: the affinity, expressed as Kd, was 0.526 nM.

In turn, B4 yielded a Kd of 0.588 nM.

B5 returned a Kd of 0.333 nM.

B6 had a Kd of 0.566 nM.

Regarding B7, binding was characterised by a dissociation constant (Kd) of 0.584 nM.

For the molecule B8, the Kd worked out at 0.355 nM.

B9 gave a Kd of 1.77 nM.

The target in the next test is T4, BoNT/F 202F. Nature of the test: yeast scFv FACS.
For B3, the binding result was “binds”.

In the case of B4, the binding result is “binds”.

On to B5, for which the binding result is listed as “binds”.

In the case of B6, the binding result is “binds”.

Consider B7, for which the binding result is given as “binds”.

Consider B8, for which the binding result is on record as “binds”.

With B9, the binding result is “binds”.
